Reference: the supplement of paper PMC10126150
± gives the standard deviation of the averaged measurements.
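Also: ATP exposure 15 min at 22 °C before imaging.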

The sequences below were run on ATP (assay: switch fluorescence ratio, 500 uM ATP over buffer (Cy3 cluster intensity, sum of 5 cycles each) (fold (ratio)); higher = stronger signal-on switching upon ATP binding; sequences stand for … in TCGTCGGCAGCGTCAGATGTGTATAAGAGACAGTTTTTTTTTTTTTTTTTTTTTTTTT…TC). Details: aptamer strand: ATP DNA aptamer (quencher-CACCTGGGGGAGTATTGCGGAGGAAGG + anchor), 100 nM annealed; ATP concentration: 500 uM.
Summary of the method: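 Five buffer/ATP imaging cycles were run on Cy3-labelled switching-strand clusters on a modified Illumina MiSeq flow-cell, with NaOH stripping and re-annealing between cycles. In each cycle, clusters annealed to 100 nM quencher-labelled ATP aptamer were imaged in selection buffer, then after 15 min with 500 uM ATP at 22 °C. Per cluster, the fluorescence ratio is summed target-cycle over summed buffer-cycle Cy3 intensity, averaged per switch-domain sequence. Only clusters within 100-1000 RFU were kept.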
AAAATTGGGC gave a switch fluorescence ratio of 1.08 ± 0.02.
ATCAATGAAG gave a switch fluorescence ratio of 0.975 ± 0.023.
For TATGCTTTGG, the switch fluorescence ratio was 0.98 ± 0.03.
TGAAGCGGCG was tested, and the switch fluorescence ratio was 0.942 ± 0.023.
AGCAAAGAGC showed a switch fluorescence ratio of 0.99 ± 0.037.
TCTGAAGGAG was tested, and the switch fluorescence ratio was 1.01 ± 0.013.
In the case of CGTAGAAAAG, the switch fluorescence ratio is reported as 0.998 ± 0.025.
For GGAAATCAGG, the switch fluorescence ratio was 0.989 ± 0.012.
With AGAGGTGTGC the switch fluorescence ratio was 1.049 ± 0.01.
With GGGTTAGTTG the switch fluorescence ratio was 0.995 ± 0.046.
With TCGGGGGAAA the switch fluorescence ratio was 0.994 ± 0.036.
TTCCGTTGAA was tested, and the switch fluorescence ratio was 1.05 ± 0.044.
CCGATAGCGT gave a switch fluorescence ratio of 2.81 ± 0.45.
With TGAACATTTG the switch fluorescence ratio was 1.03 ± 0.025.
In the case of TTAGGGGGTT, the switch fluorescence ratio is reported as 1.04 ± 0.062.
In the case of CGCTGGCCGG, the switch fluorescence ratio is reported as 0.972 ± 0.037.
TCCTTGATTG was tested, and the switch fluorescence ratio was 0.974 ± 0.057.
With GATTTGAAAC the switch fluorescence ratio was 1 ± 0.031.
Sequence ATACTAGGAG has a switch fluorescence ratio of 1 ± 0.026.
ACTGGGCGGA showed a switch fluorescence ratio of 0.996 ± 0.015.
TTTAGTGAAT showed a switch fluorescence ratio of 0.9966 ± 0.0051.
In the case of GGGGTGGAAT, the switch fluorescence ratio is reported as 1.03 ± 0.012.
GGGATGAGTT was tested, and the switch fluorescence ratio was 0.98 ± 0.041.
Sequence ACTCGAGGAT has a switch fluorescence ratio of 1.03 ± 0.013.
GGGTGTGTGG was tested, and the switch fluorescence ratio was 1 ± 0.017.
Sequence GGTGTTTGTT has a switch fluorescence ratio of 0.956 ± 0.065.
GGGTCAATGG was tested, and the switch fluorescence ratio was 1.04 ± 0.031.
Work on CGCGACTTTC yielded a switch fluorescence ratio of 1.09 ± 0.021.
TTAAAAAGAT was tested, and the switch fluorescence ratio was 1.04 ± 0.051.
Work on ATGGAGTTG yielded a switch fluorescence ratio of 0.994 ± 0.024.
TGGGTTCGGC gave a switch fluorescence ratio of 0.9808 ± 0.0045.
ATTAATCGGC showed a switch fluorescence ratio of 0.9735 ± 0.0033.
With CATGAGTAGG the switch fluorescence ratio was 0.979 ± 0.016.
For TCCTGCTGTT, the switch fluorescence ratio was 0.998 ± 0.02.
Sequence TTAGCACGTC has a switch fluorescence ratio of 1.076 ± 0.0074.
In the case of CTATTCGTGG, the switch fluorescence ratio is reported as 0.973 ± 0.029.
TTGTGCAAGG showed a switch fluorescence ratio of 1.34 ± 0.47.
In the case of GCTGGGTAGT, the switch fluorescence ratio is reported as 1.01 ± 0.022.
Sequence CAATTTATAT has a switch fluorescence ratio of 0.994 ± 0.019.
In the case of AATGTCAGCT, the switch fluorescence ratio is reported as 1.01 ± 0.021.
Work on AGAAGTACGT yielded a switch fluorescence ratio of 1.04 ± 0.013.
Work on TTGGGGGATT yielded a switch fluorescence ratio of 1 ± 0.022.
With ATCGAGGGGA the switch fluorescence ratio was 0.978 ± 0.019.
For ATTGATTGAG, the switch fluorescence ratio was 0.986 ± 0.022.
For CATGAAACAT, the switch fluorescence ratio was 1.06 ± 0.048.
GTTGCTGGGG gave a switch fluorescence ratio of 0.998 ± 0.011.
Sequence CAGAAGCGGA has a switch fluorescence ratio of 1.19 ± 0.051.
AAACAGCCGG gave a switch fluorescence ratio of 1.03 ± 0.0074.
TCCTACTGGG was tested, and the switch fluorescence ratio was 1.04 ± 0.028.
For TTTTTCCATA, the switch fluorescence ratio was 1 ± 0.022.
With TGCTCGTGCT the switch fluorescence ratio was 1.01 ± 0.028.
TAGAAAGTGC showed a switch fluorescence ratio of 1.02 ± 0.099.
With TGGGACAGCG the switch fluorescence ratio was 0.957 ± 0.031.
AGTATTTTG was tested, and the switch fluorescence ratio was 0.96 ± 0.013.
ACGTATTTTG gave a switch fluorescence ratio of 1.08 ± 0.045.
TTGTGATTAG showed a switch fluorescence ratio of 0.982 ± 0.032.
For ACACGGCGGC, the switch fluorescence ratio was 1.07 ± 0.033.
Sequence ATTTTGGCTT has a switch fluorescence ratio of 0.963 ± 0.037.
For ATCAGGGGGG, the switch fluorescence ratio was 1.02 ± 0.037.
GGGGGCGTCA was tested, and the switch fluorescence ratio was 1.02 ± 0.017.
Work on TTTGGGTGAT yielded a switch fluorescence ratio of 1.02 ± 0.022.
In the case of ACATGAATGG, the switch fluorescence ratio is reported as 0.969 ± 0.016.
With TGACGGGGCG the switch fluorescence ratio was 1.03 ± 0.05.
GCTATGTGTA gave a switch fluorescence ratio of 0.9748 ± 0.0051.
CGCCCCGAGA showed a switch fluorescence ratio of 1.02 ± 0.015.
For CGCGGGGGTA, the switch fluorescence ratio was 0.995 ± 0.03.
For TTGAAGTTAG, the switch fluorescence ratio was 0.99 ± 0.02.
TGCTTTAGGT gave a switch fluorescence ratio of 0.9922 ± 0.0092.
In the case of CGCTCGCCTG, the switch fluorescence ratio is reported as 1.03 ± 0.016.
Work on GTATTTTGGC yielded a switch fluorescence ratio of 1.025 ± 0.0052.
With AACGTACTTG the switch fluorescence ratio was 1.54 ± 0.044.
GGATTGATTA showed a switch fluorescence ratio of 1.01 ± 0.032.
In the case of TAATTTCTTA, the switch fluorescence ratio is reported as 0.996 ± 0.014.
For TGGGCATAAA, the switch fluorescence ratio was 1.006 ± 0.0012.
In the case of CTATTTCTGA, the switch fluorescence ratio is reported as 0.931 ± 0.027.
ACGGGGGGTG showed a switch fluorescence ratio of 1.01 ± 0.077.
With CTGAAATGGT the switch fluorescence ratio was 0.9928 ± 0.0041.
In the case of TTTCTATGCG, the switch fluorescence ratio is reported as 0.959 ± 0.025.
ACTGTAACGG showed a switch fluorescence ratio of 1.19 ± 0.034.
CACTTATGTG gave a switch fluorescence ratio of 0.99 ± 0.038.
TTTTCTTAGT showed a switch fluorescence ratio of 0.974 ± 0.021.
In the case of AGGGTATTCA, the switch fluorescence ratio is reported as 1.01 ± 0.02.
GGATTTTGTT was tested, and the switch fluorescence ratio was 0.998 ± 0.031.
Work on CGCTCGTGCG yielded a switch fluorescence ratio of 1 ± 0.017.
Work on TTATGACCAG yielded a switch fluorescence ratio of 1.009 ± 0.0095.
